Source: patent publication US20260285996 (published 2026)
One block for each binder: values may come before it.

Tests used:
[1] = molecular target: human BLyS 60-mer (human, UniProt Q9Y275); assay: SPR
[2] = molecular target: T1, cyno FcRn (cynomolgus monkey); assay: SPR, pH 6.0
T1 chain 1: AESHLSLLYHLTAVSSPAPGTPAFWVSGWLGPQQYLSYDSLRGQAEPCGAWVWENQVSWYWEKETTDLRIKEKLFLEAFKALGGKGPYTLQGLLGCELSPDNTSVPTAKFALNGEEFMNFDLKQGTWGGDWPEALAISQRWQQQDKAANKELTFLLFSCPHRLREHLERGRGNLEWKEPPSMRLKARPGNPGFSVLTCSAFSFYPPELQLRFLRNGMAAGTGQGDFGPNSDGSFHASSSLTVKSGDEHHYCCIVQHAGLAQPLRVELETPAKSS
T1 chain 2: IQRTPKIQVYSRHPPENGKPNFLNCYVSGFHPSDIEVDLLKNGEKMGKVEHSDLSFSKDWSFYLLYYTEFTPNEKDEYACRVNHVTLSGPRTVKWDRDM

[3] = molecular target: human FcRn (human, UniProt P55899); assay: SPR, pH 6.0
[4] = molecular target: T2, human BLyS (BAFF) trimer (human, UniProt Q9Y275); assay: competition, TACI:Fc
[5] = molecular target: T2, human BLyS (BAFF) trimer; assay: competition, BCMA:Fc
[6] = molecular target: T2, human BLyS (BAFF) trimer; assay: competition, BAFF-R:Fc
[7] = molecular target: T2, human BLyS (BAFF) trimer; assay: competition, BAFFR on CHO-K1 cells

binding result [1]: no binding
B1: Ab363A (antibody, V domains shown)
VH: QVQLQQSGAEVKKPGSSVRVSCKASGGTFNNDAINWVRQAPGQGLEWMGGIFPMFGTAKYSQNFQGRVAITADESTGTASMELSSLRSEDTAVYYCARSRDPLLYPHHALSPWGRGTMVTVSS
VL: SSELTQDPAVSVALGQTVRVTCQGDSLRYYYASWYQQKPGQAPVLVIYGKNNRPSGIPDRFSGSSSGNTASLTITGAQAEDEADYYCSSRDSSGNNWVFGGGTELTVL

binding result [1]: no binding
Kd [2]: 760000 pM
Kd [3]: 753000 pM
IC50 [4]: 200 pM
IC50 [5]: 126 pM
IC50 [6]: 100 pM
IC50 [7]: 30.2 pM
B2: Belimumab (antibody)
chain 1: not shown
chain 2: SSELTQDPAVSVALGQTVRVTCQGDSLRSYYASWYQQKPGQAPVLVIYGKNNRPSGIPDRFSGSSSGNTASLTITGAQAEDEADYYCSSRDSSGNHWVFGGGTELTVLGQPKAAPSVTLFPPSSEELQANKATLVCLISDFYPGAVTVAWKADSSPVKAGVETTTPSKQSNNKYAASSYLSLTPEQWKSHRSYSCQVTHEGSTVEKTVAPTECS
